The values below come from paper PMC4516351, “Est16, a New Esterase Isolated from a Metagenomic Library of a Microbial Consortium Specializing in Diesel Oil Degradation” (PLoS ONE, 2015).

Holding throughout (assay): purified protein
Type in all cases: biochemical, uncultured bacterium

Series [1] has as its system T1, CCCCC(=O)Oc1ccc([N+](=O)[O-])cc1.
T1 construct: full-length ORF (906 bp, 302 residues), pET28a, N-terminal His6-tag and thrombin site, tag cutting not mentioned; E. coli BL21(DE3); IMAC and SEC
To be noted: 50 mM Tris-HCl pH 8.0, 30°C, 0.3% (v/v) triton X-100, 15 nM enzyme.

Series [2] deals with T2, CCCCCCCC(=O)Oc1ccc([N+](=O)[O-])cc1.
T2 construct: full-length ORF (906 bp, 302 residues), pET28a, N-terminal His6-tag and thrombin site, tag cutting not mentioned; E. coli BL21(DE3); IMAC and SEC
To be noted: 50 mM Tris-HCl pH 8.0, 30°C, 0.3% (v/v) triton X-100, 15 nM enzyme.

Series [3] relates to T3, CCCCCCCCCCCC(=O)Oc1ccc([N+](=O)[O-])cc1.
T3 construct: full-length ORF (906 bp, 302 residues), pET28a, N-terminal His6-tag and thrombin site, tag cutting not mentioned; E. coli BL21(DE3); IMAC and SEC
To be noted: 50 mM Tris-HCl pH 8.0, 30°C, 0.3% (v/v) triton X-100, 50 nM enzyme.

Series [4] relates to T4, CCCCCCCCCC(=O)Oc1ccc([N+](=O)[O-])cc1.
T4 construct: full-length ORF (906 bp, 302 residues), pET28a, N-terminal His6-tag and thrombin site, tag cutting not mentioned; E. coli BL21(DE3); IMAC and SEC
The conditions noted are these: 50 mM Tris-HCl pH 8.0, 30°C, 0.3% (v/v) triton X-100, 15 nM enzyme.

The subject of series [5] is T5, CCCC(=O)Oc1ccc([N+](=O)[O-])cc1.
T5 construct: full-length ORF (906 bp, 302 residues), pET28a, N-terminal His6-tag and thrombin site, tag cutting not mentioned; E. coli BL21(DE3); IMAC and SEC
The conditions noted are these: 50 mM Tris-HCl pH 8.0, 30°C, 0.3% (v/v) triton X-100, 15 nM enzyme.

Est16 (uncultured bacterium): the Km was 320.4 ± 32.5 µM in series [1]; 628.6 ± 101.4 µM in series [2]; 969.5 ± 42.5 µM in series [3]; 1066.0 ± 116.9 µM in series [4]; 225.1 ± 31.8 µM in series [5]. The Vmax in series [1] is 197 µM/min; in series [2], 128 µM/min; in series [3], 22.9 µM/min; in series [4] it was 82.7 µM/min; in series [5], 206 µM/min. Further, the catalytic constant (kcat) in series [1] was 211 ± 7.26 s⁻¹; in series [2], 137 ± 9.19 s⁻¹; in series [3], 24.5 ± 0.535 s⁻¹; in series [4] it was 88.4 ± 4.81 s⁻¹; in series [5], 220 ± 9.72 s⁻¹. The kcat/Km in series [1] amounted to 665000 ± 66700 M⁻¹ s⁻¹; in series [2], 223000 ± 36700 M⁻¹ s⁻¹; in series [3] it was 25000 ± 1670 M⁻¹ s⁻¹; in series [4], 83300 ± 10000 M⁻¹ s⁻¹; in series [5], 998000 ± 142000 M⁻¹ s⁻¹.
